The test has as its target Ub(1-76)-aminoluciferin (human) (UniProt P0CG48). The experiment in a line: cell-based or functional assay.

“UCHL3 (ubiquitin carboxyl-terminal hydrolase isozyme L3) (from UniProt P15374 1-230) (enzyme)” had a fold decrease in limit of detection against Z-RLRGG-amino-luciferin of 1000 fold.

The values are drawn from US20120058499A1, “Bioluminescent Detection of Protease Activity” (priority 2010, published 2012).
